The values below come from patent US7189689.

The labels stand for the following.
T1: lecithin:cholesterol acyltransferase (LCAT), purified from human plasma (human, UniProt P04180 25-440)
T1 sequence (looked up): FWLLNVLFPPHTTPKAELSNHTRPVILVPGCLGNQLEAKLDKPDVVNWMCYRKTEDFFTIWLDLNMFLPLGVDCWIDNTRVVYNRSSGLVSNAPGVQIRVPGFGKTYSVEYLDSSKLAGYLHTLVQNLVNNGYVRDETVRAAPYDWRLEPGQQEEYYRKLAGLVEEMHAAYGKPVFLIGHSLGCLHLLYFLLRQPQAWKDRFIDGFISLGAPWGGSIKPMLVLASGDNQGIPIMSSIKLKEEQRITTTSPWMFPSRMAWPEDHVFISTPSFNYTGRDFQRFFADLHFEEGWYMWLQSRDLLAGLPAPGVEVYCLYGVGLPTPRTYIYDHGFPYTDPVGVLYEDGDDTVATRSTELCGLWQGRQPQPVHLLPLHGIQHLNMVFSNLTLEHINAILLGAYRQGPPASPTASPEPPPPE

B1: peptide 242 (peptide)
peptide: EWLEAFYKKVLEKLKELF
B2: peptide 237 (peptide)
peptide: DWFKAFYDKVFEKFKEFF
B3: peptide 241 (peptide)
peptide: DWLKAFYDKVFEKFKEFF
B4: peptide 245 (peptide)
peptide: EWLKAEYEKVEEKLKELF
B5: peptide 244 (peptide)
peptide: EWLKAFYEKVLEKLKELF
B6: peptide 246 (peptide)
peptide: EWLKAEYEKVLEKLKELF
B7: peptide 247 (peptide)
peptide: EWLKAFYKKVLEKLKELF
B8: peptide 243 (peptide)
peptide: DWFKAFYDKFFEKFKEFF

For the assay, the target named is T1, lecithin:cholesterol acyltransferase …. Briefly: cell-based or functional assay.
For B1, the “ACTIVITY (%) LCAT” value was determined as 7%. For the molecule B2, the “ACTIVITY (%) LCAT” value was found to be 11%. As for B3, the figure is 8%; as for B4, 4%; as for B5, 5%. As for B6, the figure is 4%. As for B7, the figure is 3%; as for B8, 5%.
